Results published in patent US7419813B2, “Fructosyl peptide oxidase” (Kikkoman Corporation, priority 2001, dated 2008).

How the values were obtained:
[1] = Enzyme activity assay, ε-fructosyl lysine substrate; assay type: biochemical; details: for Substrate specificity (% relative activity) εFL: crude enzyme sample; for relative activity for ε-fructosyl lysine: purified oxidase, compared to 100% activity for fructosyl valyl histidine
Text: Enzyme activities of the oxidase of the invention and the oxidase of the invention that have less action on ε-fructosyl lysine (hereinafter, the term “the oxidases of the invention” may comprise both the oxidase of the invention and the oxidase of the invention that have less action on ε-fructosyl lysine) may principally be determined by determining the amount of α-ketoaldehyde, peptide, hydrogen peroxide or the like which are produced through enzyme reaction or by determining the amount of oxygen consumed by the enzyme reaction. Hereinafter, a method for determining the amount of hydrogen peroxide will be described as one example. Unless otherwise noted, fructosyl valyl histidine is used as a substrate for determining the activities of the oxidases of the invention. Titer of the enzyme is defined such that an amount of enzyme for producing 1 μmol hydrogen peroxide per minute is 1U as determined using a fructosyl valyl histidine substrate. 624 mg of fructosyl valyl histidine is dissolved in ion exchange water to a constant volume of 10 ml. Alternatively, fructosyl glycine or ε-fructosyl lysine of 357 mg or 462 mg, respectively, may be dissolved in ion exchange water to a constant volume of 10 ml to be used as a substrate. Fructosyl valine histidine was prepared as described in Japanese Patent Application Laid-Open (kohyo) No. 2001-95598. Fructosyl glycine and ε-fructosyl lysine were prepared according to a method of Horiuchi et al. (Agric. Biol. Chem., 53, 103-110, 1989; Agric. Biol. Chem., 55, 333-338, 1991). 2.7 ml of Reagent 1, 100 μl of Reagent 2 and 100 μl of enzyme solution are mixed and pre-heated at 30° C. for 5 minutes. Then, 100 μl of Reagent 3 is added and thoroughly mixed to determine absorbance at 510 nm using a spectrophotometer (U-[…], Hitachi, Ltd.). Measurement values indicate changes in the absorbance per minute at 510 nm after 1 to 3 minutes. A control solution was prepared in the same manner as described above except 100 μl ion exchange water was added instead of 100 μl Reagent 3. A standard solution of hydrogen peroxide and ion exchange water were used instead of Reagent 3 and the enzyme solution, respectively, to prepare a graph showing relationship with respect to the level of color. Referring to this graph, micromole of hydrogen peroxide produced per minute at 30° C. is calculated and used as the unit for expressing the activity of the enzyme solution. The presence of action on ε-fructosyl lysine can be determined in the same manner by using Reagent 3 (substrate solution) containing ε-fructosyl lysine substrate instead of fructosyl valyl histidine substrate.

[2] = assay type: physicochemical; details: for pH of maximum remaining activity: 10 min; for stable pH range: purified oxidase, 30° C. for 10 minutes, remaining activities of 70% (Eupenicillium 60%) or higher
Protocol: For example, 200 mM acetic acid buffer (pH 3.0-6.0), 200 mM MES-NaOH (pH 6.0-7.0), 200 mM Tris buffer (pH 6.8-9.0), 200 mM potassium phosphate buffer (pH 6.5-8.0) and 200 mM glycine buffer (pH 8.0-12.0) are used as buffers to perform enzyme reactions at the indicated pH at 30° C. for 10 minutes, thereby determining the remaining activities of the oxidases of the invention. For example, the oxidases of the invention may have a stable pH at 5.0-10.0, preferably at 6.0-9.0. For example, 200 mM acetic acid buffer (pH 3.0-6.0), 200 mM MES-NaOH (pH 6.0-7.0), 200 mM Tris buffer (pH 6.8-9.0), 200 mM potassium phosphate buffer (pH 6.5-8.0) and 200 mM glycine buffer (pH 8.0-12.0) are used as buffers to perform enzyme reactions at the indicated pH at 30° C. for 10 minutes, thereby determining the remaining activities of the oxidases of the invention. For example, the oxidases of the invention that have less action on ε-fructosyl lysine may have a stable pH range at 5.0-10.0, preferably at 6.0-9.0. The inventive oxidase was treated with 200 mM acetic acid buffer (pH 3.0-6.0), 200 mM MES-NaOH (pH 6.0-7.0), 200 mM Tris buffer (pH 6.8-9.0), 200 mM potassium phosphate buffer (pH 6.5-8.0) or 200 mM glycine buffer (pH 8.0-12.0) at the indicated pH values at 30° C. for 10 minutes, and its remaining activity was determined. […] The inventive oxidase was treated with 200 mM acetic acid buffer (pH 3.0-6.0), 200 mM MES-NaOH (pH 6.0-7.0), 200 mM Tris buffer (pH 7.0-8.5), 200 mM potassium phosphate buffer (pH 6.0-8.0) or 200 mM glycine buffer (pH 8.0-12.0) at the indicated pH values at 30° C. for 10 minutes, and the remaining activity thereof was monitored.

[3] = reference substrate set to 100%

Molecule	Substrate specificity (% relative activity) εFL [1, 3]	Substrate specificity (% relative activity) εFL ([1]; relative to activity for fructosyl valyl histidine (100%))	relative activity for ε-fructosyl lysine [1]	pH of maximum remaining activity [2]	stable pH range [2]
Eupenicillium terrenum ATCC 18547: fructosyl peptide oxidase produced by Eupenicillium terrenum ATCC 18547 with less action on ε-fructosyl lysine; amino acid sequence SEQ ID NO: 3 (protein, listed as Eupenicillium terrenum) MAHSRASTKVVVVGGGGTIGSSTALHLIRSGYTPSNITVLDVYKTPSLQSAGHDLNKIMGIRLRNGPDLQLSLESLDMWQNDELFKPFFHQVGMIDCSSSKEGIENLRRKYQTLLDAGIGLEKTNVWLESEDEILAKAPNFTREQVKGWKGLFCTDGGWLAAAKAINAIGIFLQDKGVKFGFGGAGTFQQPLFAADGKTCIGLETTDGTKYFADKVVLAAGAWSPTLVDLEDQCVSKAWVFAHIQLTPKEADAYKNVPVVYDGEYGFFFEPNEYGVIKVCDEFPGFSRFKLHQPYGAASPKMISVPRSHAKHPTDTYPDASEVTIRKAIARFLPEFKDKELFNRTMCWCTDTADANLLICEHPKWKNFILATGDSGHSFKLLPNIGKHVVELLEGSLSQEMAGAWRWRPGGDALRSRRGAPAKDLAEMPGWKHDAHL	100%	9.78%	9.78%	8.0 pH	6.0-9.0 pH
Coniochaeta sp. NISL 9330: fructosyl peptide oxidase produced by Coniochaeta sp. NISL 9330 (FERM BP-7798) with less action on ε-fructosyl lysine; amino acid sequence SEQ ID NO: 1 (protein, listed as Coniochaeta sp.) MTSNRADTRVIVVGGGGTIGSSTALHLVRSGYAPANITVLDTFEIPSAQSAGHDLNKIMGIRLRNKVDLQMSLEARQMWKEDELFQPFFHNTGRMDCEHTPEGIEDLKKQYQALHDAGAGLEKTHAWLDNEDEILSKMPLLQRDQIQGWKAIWSQDGGWLAAAKAINAIGQFLKERGVKFGFGGAGSFKQPLFDDEGTTCIGVETADGTKYYADKVVLAAGAWSPTLVDLEDQCCSKAWVYAHIQLTPEEAAEYKGVPVVYNGEFGFFFEPNEFGVIKVCDEFPGFSRFKEHQPYGAPSPKHISVPRSHAKHPTDTYPDASEVSIKKAIATFLPRFQDKELFNRALCWCTDTADAALLMCEHPKWKNFILATGDSGHSFKILPNVGKHVVELIEGRLPEEMAYQWRWRPGGDALKSRRAAPPKDLADMPGWKHDPKL	100%		61%	~7.0 pH	5.0-9.0 pH
